Measurements published in paper PMC10027671.

Tests used:
Adnectin1-tFhuA [1] = assay: single-channel electrical recording (nanopore, resistive pulse); single Adnectin1-tFhuA sensor in a planar lipid bilayer, 20 nM EGFR cis, in the presence of 5% (v/v) fetal bovine serum; +20 mV; filtered at 500 Hz
Adnectin1-tFhuA [2] = assay: single-channel electrical recording (nanopore, resistive pulse); single Adnectin1-tFhuA sensor in a planar lipid bilayer, EGFR added to the cis side; +20 mV; 300 mM KCl, 10 mM Tris-HCl, pH 8.0, no TCEP; 24 ± 1 °C; two-exponential capture durations (short- and long-lived)

A tau off-1 at 20 nM EGFR with 5% FBS (Fig. 5k) (Adnectin1-tFhuA [1]) of 0.036 s, a tau off-2 (mean duration of long-lived blockades) with 5% FBS (Adnectin1-tFhuA [1]) of 0.93 s and a tau off-2 at 20 nM EGFR with 5% FBS (Fig. 5k) (Adnectin1-tFhuA [1]) of 0.81 s were found for “ectodomain of epidermal growth factor receptor (EGFR) (from UniProt P00533 25-645) (domain or fragment)” in this work. It also gave a tau on (released duration) at 20 nM EGFR with 5% FBS (Fig. 5j) (Adnectin1-tFhuA [1]) of 0.607 s, a tau on-2 with 5% FBS (Adnectin1-tFhuA [1]) of 1.7 s and a tau off-1 at 20 nM EGFR, without FBS (Fig. 5i) (Adnectin1-tFhuA [2]) of 0.044 s. For the same substance, the tau off-2 at 20 nM EGFR, without FBS (Fig. 5i) (Adnectin1-tFhuA [2]) was 0.982 s, the tau on (released duration) at 10 nM EGFR (Adnectin1-tFhuA [2]) was 0.78 s and the tau on (released duration) at 20 nM EGFR (Adnectin1-tFhuA [2]) was 0.42 s. For the same substance, the tau on (released duration) at 20 nM EGFR, without FBS (Fig. 5h) (Adnectin1-tFhuA [2]) was 0.4 s and the tau on (released duration) at 40 nM EGFR (Adnectin1-tFhuA [2]) was 0.25 s.
